Key:
Mouse IgG [1] = assay: Luminex xMap bead sandwich assay, mouse IgG titration, detection with streptavidin-conjugated polymer
Mouse IgG [2] = assay: Luminex xMap bead sandwich assay, mouse IgG titration, detection with streptavidin-phycoerythrin at 4 ug/mL
[3] = molecular target: unlabeled anti-CD4 (RPA-T4 clone, BD Biosciences) raised in mouse against the human antigen; assay: flow cytometry on Cyto-trol cells pre-labeled with mouse anti-CD4 primary (Example 36, FIG. 20B)

Row | MFI/zero (fluorescence highest point in standard curve/fluorescence zero concentration of analyte) (Mouse IgG [1]) | MFI/zero (fluorescence highest point in standard curve/fluorescence zero concentration of analyte) (Mouse IgG [2]) | stain index, fold over a Pacific Blue control conjugate of the same antibody [3] | Substance
1 | 26.6 | 21.8 |  | Donkey anti-mouse IgG antibody covalently conjugated to xMap beads
2 |  |  | > 4 fold | 405 polymer-goat anti-mouse conjugate (amine-functionalized 405 polymer conjugated to goat anti-mouse IgG purified antibody)
